Results on three molecules are retold here after paper doi:10.1101/2021.10.10.463828 (bioRxiv, 2021).

B1: Tim23, overexpressed (natural protein)
chain: MSWLFGDKTPTDDANAAVGGQDTTKPKELSLKQSLGFEPNINNIISGPGGMHVDTARLHPLAGLDKGVEYLDLEEEQLSSLEGSQGLIPSRGWTDDLCYGTGAVYLLGLGIGGFSGMMQGLQNIPPNSPGKLQLNTVLNHITKRGPFLGNNAGILALSYNIINSTIDALRGKHDTAGSIGAGALTGALFKSSKGLKPMGYSSAMVAAACAVWCSVKKRLLEK
B2: Tim17 with an affinity tag, overexpressed (natural protein)
chain: MSADHSRDPCPIVILNDFGGAFAMGAIGGVVWHGIKGFRNSPLGERGSGAMSAIKARAPVLGGNFGVWGGLFSTFDCAVKAVRKREDPWNAIIAGFFTGGALAVRGGWRHTRNSSITCACLLGVIEGVGLMFQRYAAWQAKPMAPPLPEAPSSQPLQA
modifications: disulfide bond between Cys10 and Cys77

Experiment [1] has as its target B1. Briefly: cryo-EM structure.
The target in experiment [2] is Tim17 with an affinity tag, overexpressed (S. cerevisiae) (UniProt P39515). Briefly: cryo-EM structure.
The target in experiment [3] is B2. Briefly: cryo-EM structure.
Experiment [4] has as its target B1. Briefly: pull-down.

With Tim44, overexpressed (natural protein), the stoichiometry N (as a rule, the number of molecules, sites or subunits per partner or assembly) in the experiment with Tim23, overexpressed [1] is 1; in experiment [2], 1.

For B1, the “stoichiometry N” value in experiment [3] turned out to be 1. Consider B2, for which the binding result with Tim23, overexpressed [4] is listed as “binds”.
